We go through 13 substances from patent US20210130437A1.

Experiment [1] has as its target CD112R (UniProt Q6DKI7). The experiment can be described thus: flow cytometry, CD112R-expressing cells, secondary reagent alone. In general terms: Flow cytometry measures light scatter and fluorescence of single cells or particles in a stream.
The target of experiment [2] is TIGIT (Homo sapiens (Human)) (UniProt Q495A1). The experiment can be described thus: flow cytometry, TIGIT-expressing cells, secondary reagent alone.
Sequence of TIGIT (Homo sapiens (Human)) (Q495A1 22-244): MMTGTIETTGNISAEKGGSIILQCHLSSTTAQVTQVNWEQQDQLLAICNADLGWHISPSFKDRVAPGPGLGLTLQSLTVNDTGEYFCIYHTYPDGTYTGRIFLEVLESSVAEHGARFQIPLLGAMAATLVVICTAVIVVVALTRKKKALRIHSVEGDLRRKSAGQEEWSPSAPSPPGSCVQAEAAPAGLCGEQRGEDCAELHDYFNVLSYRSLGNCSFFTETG
The target of experiment [3] is T1, CD96 (UniProt P40200).
T1 sequence (looked up): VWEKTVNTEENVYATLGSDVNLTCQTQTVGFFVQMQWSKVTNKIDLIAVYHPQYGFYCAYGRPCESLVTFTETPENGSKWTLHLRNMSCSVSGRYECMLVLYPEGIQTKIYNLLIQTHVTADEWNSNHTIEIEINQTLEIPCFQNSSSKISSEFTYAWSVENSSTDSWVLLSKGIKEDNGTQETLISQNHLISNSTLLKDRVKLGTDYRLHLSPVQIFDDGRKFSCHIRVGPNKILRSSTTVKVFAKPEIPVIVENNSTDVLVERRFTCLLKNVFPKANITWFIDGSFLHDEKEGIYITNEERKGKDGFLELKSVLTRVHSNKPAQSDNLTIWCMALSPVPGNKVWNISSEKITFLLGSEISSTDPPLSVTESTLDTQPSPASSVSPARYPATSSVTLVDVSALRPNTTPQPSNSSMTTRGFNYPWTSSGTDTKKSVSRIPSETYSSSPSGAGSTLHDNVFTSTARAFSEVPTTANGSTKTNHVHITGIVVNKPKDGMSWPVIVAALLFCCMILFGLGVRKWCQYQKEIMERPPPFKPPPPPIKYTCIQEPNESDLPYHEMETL
Nature of the experiment: flow cytometry, CD96-expressing cells, secondary reagent alone.

For experiment [4], the target named is CD226 (Homo sapiens (Human)) (UniProt Q15762). The experiment can be described thus: flow cytometry, CD226-expressing cells, secondary reagent alone.
Sequence of CD226 (Homo sapiens (Human)) (Q15762 19-336): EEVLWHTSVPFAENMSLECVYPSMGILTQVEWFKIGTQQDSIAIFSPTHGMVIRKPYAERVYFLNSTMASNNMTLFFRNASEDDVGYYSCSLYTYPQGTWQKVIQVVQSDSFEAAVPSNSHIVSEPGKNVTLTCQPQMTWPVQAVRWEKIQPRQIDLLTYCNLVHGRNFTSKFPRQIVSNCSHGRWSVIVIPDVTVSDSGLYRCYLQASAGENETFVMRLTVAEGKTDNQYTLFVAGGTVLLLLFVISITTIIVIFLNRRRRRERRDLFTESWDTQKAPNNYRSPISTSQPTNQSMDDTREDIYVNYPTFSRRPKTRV
Experiment [5] deals with T1, CD96. Nature of the experiment: flow cytometry, 100 nM Fc fusion on cells expressing CD96.
Experiment [6] deals with human PD-1 and human TIGIT co-expressed on Jurkat cells (Jurkat/PD-1/TIGIT cells) (human). The experiment can be described thus: flow cytometry, Jurkat/PD-1/TIGIT cells.
Sequence of human PD-1 and human TIGIT co-expressed on Jurkat cells (Jurkat/PD-1/TIGIT cells) (human) (chain, as listed by the source, chain 1 of 2): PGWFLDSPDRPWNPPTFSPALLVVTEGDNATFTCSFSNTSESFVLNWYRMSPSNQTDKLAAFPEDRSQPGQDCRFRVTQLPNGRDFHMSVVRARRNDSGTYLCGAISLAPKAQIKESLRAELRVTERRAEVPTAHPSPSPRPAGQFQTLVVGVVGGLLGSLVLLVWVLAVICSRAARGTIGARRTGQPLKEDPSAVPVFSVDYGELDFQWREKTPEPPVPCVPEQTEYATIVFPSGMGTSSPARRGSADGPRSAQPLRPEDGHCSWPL
Sequence of human PD-1 and human TIGIT co-expressed on Jurkat cells (Jurkat/PD-1/TIGIT cells) (human) (chain, as listed by the source, chain 2 of 2): as the sequence (Q495A1 22-244) above
Experiment [7] deals with human PD-1 expressed on cells (Jurkat/PD-1 cells) (human) (UniProt Q15116). Nature of the experiment: flow cytometry, Jurkat/PD-1 cells.
Sequence of human PD-1 expressed on cells (Jurkat/PD-1 cells) (human) (Q15116 21-288): as the sequence (chain, as listed by the source, chain 1 of 2) above
In experiment [8] the target is human TIGIT expressed on cells (Jurkat/TIGIT cells) (human) (UniProt Q495A1). The experiment can be described thus: flow cytometry, Jurkat/TIGIT cells.
Sequence of human TIGIT expressed on cells (Jurkat/TIGIT cells) (human) (Q495A1 22-244): as the sequence (Q495A1 22-244) above
Experiment [9] addresses rB7H6.Fc (recombinant B7-H6 Fc fusion protein, R&D Systems) (human) (UniProt Q68D85). The experiment can be described thus: flow cytometry of yeast-displayed parental NKp30 stained with […] rB7H6.Fc.
Experiment [10] has as its target CD112R (UniProt Q6DKI7). The experiment can be described thus: flow cytometry, CD112R-expressing cells, 100 nM.
In experiment [11] the target is PD-1 stably expressed on Jurkat/IL-2 reporter cells (Jurkat/PD-1) (human) (UniProt Q15116). Nature of the experiment: cell-based or functional assay.
Sequence of PD-1 stably expressed on Jurkat/IL-2 reporter cells (Jurkat/PD-1) (human) (Q15116 25-288): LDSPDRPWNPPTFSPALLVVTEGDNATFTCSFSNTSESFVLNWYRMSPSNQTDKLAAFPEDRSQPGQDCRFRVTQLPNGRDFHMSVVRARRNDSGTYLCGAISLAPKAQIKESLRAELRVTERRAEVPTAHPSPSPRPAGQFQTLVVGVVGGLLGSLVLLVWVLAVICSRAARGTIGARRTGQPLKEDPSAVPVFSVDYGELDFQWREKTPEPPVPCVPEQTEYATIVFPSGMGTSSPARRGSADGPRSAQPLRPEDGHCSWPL

Sequence of CD112R (Q6DKI7 whole entry): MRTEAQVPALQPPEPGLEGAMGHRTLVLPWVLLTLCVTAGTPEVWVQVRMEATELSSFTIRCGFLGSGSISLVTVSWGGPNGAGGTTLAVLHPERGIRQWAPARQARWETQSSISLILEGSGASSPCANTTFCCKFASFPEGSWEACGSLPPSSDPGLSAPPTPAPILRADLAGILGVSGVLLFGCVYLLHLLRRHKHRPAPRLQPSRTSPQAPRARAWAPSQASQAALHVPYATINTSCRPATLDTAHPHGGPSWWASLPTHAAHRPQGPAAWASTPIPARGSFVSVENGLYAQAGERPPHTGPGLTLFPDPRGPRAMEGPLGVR
Sequence of rB7H6.Fc (recombinant B7-H6 Fc fusion protein, R&D Systems) (human) (Q68D85 25-262 limits assumed): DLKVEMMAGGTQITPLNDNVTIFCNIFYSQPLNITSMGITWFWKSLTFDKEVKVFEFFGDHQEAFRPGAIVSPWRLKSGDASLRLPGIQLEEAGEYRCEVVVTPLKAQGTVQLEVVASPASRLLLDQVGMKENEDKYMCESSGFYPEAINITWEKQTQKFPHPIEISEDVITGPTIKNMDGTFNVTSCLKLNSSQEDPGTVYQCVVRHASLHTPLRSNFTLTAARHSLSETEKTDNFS

In the case of Anti-hFc PE (antibody), the MFI at 20 nM in experiment [1] is 1010; in experiment [2] it was 1140; in [3], 1060; in experiment [4], 1010.

As for “CD112 variant IgV-Fc fusion V19A, N47K, N106Y, K116E, S118Y”, the MFI at 100 nM in experiment [5] turned out to be 2850.

In the case of “Fc Control (heterodimer) (from UniProt P0DOX5 218-449; P0DOX5 218-449)”, in experiment [6], the MFI at 6.25 nM amounted to 48 MFI.

In turn, “Fc Control (homodimer) (from UniProt P0DOX5 218-449)” gave an MFI at 6.25 nM in experiment [6] of 66 MFI.

“Human IgG (irrelevant Ig control) (antibody)”: in experiment [7], the Fold increase over wildtype PD-L1 IgV-Fc was determined as 0 fold, the MFI at 6.25 nM turned out to be 41 MFI and the MFI at 50 nM was 198 MFI. Also, in [6], the MFI at 6.25 nM turned out to be 41 MFI. The MFI at 6.25 nM in experiment [8] is 48 MFI.

In the case of “PD-L1 variant IgV-Fc I20L/K28E/D43G/N45D/V58A/Q89R (Fc fusion)”, in experiment [7], the Fold increase over wildtype PD-L1 IgV-Fc was 15.4 fold and the MFI at 50 nM was found to be 80500 MFI.

In turn, “Wild Type CD155 full ECD Fc (from UniProt P15151 21-343) (Fc fusion)” yielded an MFI at 6.25 nM in [6] of 249 MFI.

Turning to “Wild Type PD-L2 full ECD Fc (from UniProt Q9BQ51 20-220) (Fc fusion)”, in experiment [6], the MFI at 6.25 nM is 314 MFI.

Turning to “parental NKp30 strain (wild-type NKp30 IgC-like domain displayed on yeast) (from UniProt O14931 19-134) (receptor)”, in experiment [9], the MFI was determined as 90.

As for “variant CD112 IgV-Fc R12W, Y33H, Q79R, V101M, A112V (Fc fusion)”, the MFI at 100 nM in [10] was found to be 2050.

In experiment [10], “variant CD112 IgV-Fc Y33H, A112V, S118Y (Fc fusion)” registered an MFI at 100 nM of 2350.

The substance “variant PD-L2 IgV-Fc H15Q/T47A/K65R/S67L/Q82R/V89D (Fc fusion)” displayed an MFI at 6.25 nM in [6] of 20300 MFI.

For “variant PD-L2 IgV-Fc I13V,H15Q,T47A,E58G,S67L,Q82R,V89D (Fc fusion)”, in experiment [11], the Fold increase over wildtype PD-L2 IgV-Fc (IFN gamma, MLR) is 0.61 fold and the IFN gamma levels pg/mL (MLR) is 836 pg/mL.
